Measured values as given in paper PMC10208570 (2023).
Read-outs that look alike come from different tables or passages of the source. Bridges are numbered along the chain shown (N, C = ends). Where no end group is shown, it is not given here.

T1: LptAm^Q62L (E. coli) (E. coli (ATCC 25922))
T1 chain: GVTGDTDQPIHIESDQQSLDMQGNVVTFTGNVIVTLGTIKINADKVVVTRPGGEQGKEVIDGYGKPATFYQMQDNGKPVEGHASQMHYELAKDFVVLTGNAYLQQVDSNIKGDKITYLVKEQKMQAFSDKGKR

T2: LptAm (E. coli), monomeric truncated variant of LptA (E. coli (ATCC 25922))
T2 chain: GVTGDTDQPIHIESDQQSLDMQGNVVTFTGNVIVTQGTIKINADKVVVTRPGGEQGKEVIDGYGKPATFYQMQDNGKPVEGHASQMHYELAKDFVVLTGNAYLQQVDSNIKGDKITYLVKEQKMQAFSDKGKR

T3: K. pneumoniae LptAm (K. pneumoniae (ATCC 13883))
T3 chain: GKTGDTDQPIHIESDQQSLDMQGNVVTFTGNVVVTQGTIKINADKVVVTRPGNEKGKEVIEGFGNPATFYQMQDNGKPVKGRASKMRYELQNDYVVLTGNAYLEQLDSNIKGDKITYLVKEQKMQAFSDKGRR


What was measured:
Assay in all cases: FP
LptAm^Q62L (E. coli) [1] = molecular target: T1, LptAm^Q62L (E. coli)
[2] = molecular target: T2, LptAm (E. coli), monomeric truncated …
K. pneumoniae LptAm [3] = molecular target: T3, K. pneumoniae LptAm
K. pneumoniae LptAm^Q62L = K. pneumoniae LptAm^Q62L (K. pneumoniae (ATCC 13883))
LptAm^Q62L (E. coli) [4] = molecular target: T1, LptAm^Q62L (E. coli)
[5] = molecular target: T2, LptAm (E. coli), monomeric truncated …
K. pneumoniae LptAm [6] = molecular target: T3, K. pneumoniae LptAm
LptAm^Q62L (E. coli) [7] = molecular target: T1, LptAm^Q62L (E. coli)
[8] = molecular target: T2, LptAm (E. coli), monomeric truncated …

Row | Binder | Ki (LptAm^Q62L (E. coli) [1]) | Ki [2] | Ki (K. pneumoniae LptAm [3]) | IC50 (K. pneumoniae LptAm^Q62L) | Ki (K. pneumoniae LptAm^Q62L) | IC50 (LptAm^Q62L (E. coli) [4]) | IC50 [5] | IC50 (K. pneumoniae LptAm [6]) | IC50 (LptAm^Q62L (E. coli) [7]) | IC50 [8]
1 | KKPVPIIYCNRRTGKCQRM (disulfide 9-16 (inferred)) [peptide 1] | 20.5 nM | 1.1 nM | 0.9 nM | 20.8 nM | 18.2 nM | 30.4 nM | 6.6 nM | 9.6 nM | – | –
2 | GSKKPVPIIYCNRRTGKCQRM [Thanatin] | – | – | – | – | – | 50 nM | – | – | – | –
3 | mLptA (E. coli), LptA(25-185) E39V M47A R76A (domain or fragment) GAFAVTGDTDQPIHIVSDQQSLDAQGNVVTFTGNVIVTQGTIKINADKVVVTAPGGEQGKEVIDGYGKPATFYQMQDNGKPVEGHASQMHYELAKDFVVLTGNAYLQQVDSNIKGDKITYLVKEQKMQAFSDKGKRVTTVLVPSQLQDKNNKGQTPAQKKGN | – | – | – | – | – | – | – | – | 102 nM | 213 nM
